Measurements: paper PMC6517241 (Chembiochem : a European journal of chemical biology, 2019)

Assays:
[1] = tested on: SH-SY5Y human neuroblastoma cells; assay: Flow cytometry quantitation of cellular uptake, SH-SY5Y; type: cell-based
Cellular toxicity = type: cell-based; conditions: Figure S6
[2] = ref 5b; cited from earlier work

## L-Aβ42-TAMRA: L-Aβ42 N-terminally labeled with 5(6)-Carboxytetramethylrhodamine (TAMRA)
[1]; SH-SY5Y, 2 h, 4 °C, flow cytometry (Figure S12)
  Cell fluorescence after incubation at 4 °C (membrane binding): low fluorescence
Cellular toxicity
  Influence of N-terminal TAMRA modification on cellular toxicity: not influence cellular toxicity to any significant degree

## L-Aβ42: natural L-stereoisomer of the 42 amino acid isoform of Amyloid β
[1]; interpretation of the ~5:1 ratio
  Fraction taken up through chirality-dependent mechanisms (class I): approximately 80%

## cecropin
[2]
  Potency of L- and D-enantiomers as pore-forming antibacterial peptides: equally potent

## magainin
[2]
  Potency of L- and D-enantiomers as pore-forming antibacterial peptides: equally potent

## melittin
[2]
  Potency of L- and D-enantiomers as pore-forming antibacterial peptides: equally potent
